Experimental data as given in IntAct's records for PubMed 11259609.

B1: Aryl hydrocarbon receptor (Homo sapiens), P35869 (parent)
chain: MNSSSANITYASRKRRKPVQKTVKPIPAEGIKSNPSKRHRDRLNTELDRLASLLPFPQDVINKLDKLSVLRLSVSYLRAKSFFDVALKSSPTERNGGQDNCRAANFREGLNLQEGEFLLQALNGFVLVVTTDALVFYASSTIQDYLGFQQSDVIHQSVYELIHTEDRAEFQRQLHWALNPSQCTESGQGIEEATGLPQTVVCYNPDQIPPENSPLMERCFICRLRCLLDNSSGFLAMNFQGKLKYLHGQKKKGKDGSILPPQLALFAIATPLQPPSILEIRTKNFIFRTKHKLDFTPIGCDAKGRIVLGYTEAELCTRGSGYQFIHAADMLYCAESHIRMIKTGESGMIVFRLLTKNNRWTWVQSNARLLYKNGRPDYIIVTQRPLTDEEGTEHLRKRNTKLPFMFTTGEAVLYEATNPFPAIMDPLPLRTKNGTSGKDSATTSTLSKDSLNPSSLLAAMMQQDESIYLYPASSTSSTAPFENNFFNESMNECRNWQDNTAPMGNDTILKHEQIDQPQDVNSFAGGHPGLFQDSKNSDLYSIMKNLGIDFEDIRHMQNEKFFRNDFSGEVDFRDIDLTDEILTYVQDSLSKSPFIPSDYQQQQSLALNSSCMVQEHLHLEQQQQHHQKQVVVEPQQQLCQKMKHMQVNGMFENWNSNQFVPFNCPQQDPQQYNVFTDLHGISQEFPYKSEMDSMPYTQNFISCNQPVLPQHSKCTELDYPMGSFEPSPYPTTSSLEDFVTCLQLPENQKHGLNPQSAIITPQTCYAGAVSMYQCQPEPQHTHVGQMQYNPVLPGQQAFLNKFQNGVLNETYPAELNNINNTQTTTHLQPLHHPSEARPFPDLTSSGFL
partner: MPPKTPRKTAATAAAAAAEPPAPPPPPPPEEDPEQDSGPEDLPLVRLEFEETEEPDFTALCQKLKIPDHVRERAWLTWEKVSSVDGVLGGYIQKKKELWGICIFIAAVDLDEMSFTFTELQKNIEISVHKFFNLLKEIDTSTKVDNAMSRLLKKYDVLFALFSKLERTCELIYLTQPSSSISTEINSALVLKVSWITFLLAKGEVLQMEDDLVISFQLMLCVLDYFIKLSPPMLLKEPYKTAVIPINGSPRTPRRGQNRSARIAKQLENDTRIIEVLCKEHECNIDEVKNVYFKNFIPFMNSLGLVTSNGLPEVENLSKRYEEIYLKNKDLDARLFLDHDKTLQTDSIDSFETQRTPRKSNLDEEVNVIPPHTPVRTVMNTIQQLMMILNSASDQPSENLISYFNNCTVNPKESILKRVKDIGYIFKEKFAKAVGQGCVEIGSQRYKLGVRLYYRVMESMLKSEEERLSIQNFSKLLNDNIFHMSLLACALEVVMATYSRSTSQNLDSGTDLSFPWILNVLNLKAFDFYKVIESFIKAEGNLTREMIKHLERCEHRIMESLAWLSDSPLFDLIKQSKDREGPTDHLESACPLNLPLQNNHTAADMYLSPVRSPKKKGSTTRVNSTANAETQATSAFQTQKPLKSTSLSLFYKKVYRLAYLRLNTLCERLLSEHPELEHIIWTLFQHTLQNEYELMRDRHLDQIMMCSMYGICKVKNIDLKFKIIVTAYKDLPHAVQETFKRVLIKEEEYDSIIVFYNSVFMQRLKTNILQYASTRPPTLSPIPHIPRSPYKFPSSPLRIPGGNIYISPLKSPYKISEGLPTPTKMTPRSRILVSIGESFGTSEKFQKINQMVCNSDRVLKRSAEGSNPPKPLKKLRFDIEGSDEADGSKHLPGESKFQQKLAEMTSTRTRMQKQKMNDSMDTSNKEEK

Variants of: B1
Settings: with rb_human RB1, P06400

| effect of a mutation on the interaction | Variant |
| --- | --- |
| disrupting interaction strength | L331A |
| disrupting interaction strength | E335A |
| disrupting interaction strength | C333A |
